Consider one molecule from publication PMC5895705, “Activation of the DnaK-ClpB Complex is Regulated by the Properties of the Bound Substrate” (Scientific Reports, 2018).

The target of the assay is T1, ClpB, wild type (E. coli, UniProt P63284 1-857).
T1 construct: ClpB, E. coli, wild type; also called wt ClpB; wt-ClpB; source: E. coli BB4561, purified as previously described
Description: co-sedimentation; G6PDH50 aggregates (1 μM) incubated 10 min at 30 °C in refolding buffer with DnaJ, 3.5 μM wt DnaK or variant, with or without 5 μM wt or mutant ClpB, 3 mM ATP with regenerating system, no GrpE; 122,000 x g, 40 min, 4 °C; pellets on SDS-PAGE or NuPAGE, densitometry, controls with native G6PDH subtracted. Conditions: both partners purified.

B1: DnaK_(1–507) (domain or fragment)
chain: not shown
notes: DnaK, E. coli, residues 1-507 (lid deleted); also called Δlid; Δlid-DnaK
For the molecule B1, the binding result is recorded as “binds”.
